These are literature values, as cited in article PMC8558179, “The C-terminal peptide of CCL21 drastically augments CCL21 activity through the dendritic cell lymph node homing receptor CCR7 by interaction with the receptor N-terminus” (Cellular and Molecular Life Sciences: CMLS, 2021).

The test system of the series is CCL21. The following applies: cited from earlier work. An excerpt: Another phenomenon that could explain the C21TP boosting ability would be that the peptide was able to relieve the auto-inhibition of CCL21. The peptide could potentially occupy the site on CCL21 normally contacted by the attached basic C-terminus during the auto-inhibition process, in this way preventing the formation of the locked CCL21 version. In this way the peptide could participate in unfolding of CCL21, similar to the process that is predicted to take place in the presence of polysialic acid residues. The boosting effect of C21TP on CCL19 could also be based on a direct chemokin ...

B1: CCL21: full-length chemokine (residues 1–111), CCR7 ligand, from R&D Systems (protein, UniProt O00585 24-134, looked up)
C-C motif chemokine 21: SDGGAQDCCLKYSQRKIPAKVVRSYRKQEPSLGCSIPAILFLPRKRSQAELCADPKELWVQQLMQHLDKTPSPQKPAQGCRKDRGASKTGKKGKGSKGCKRTERSQTPKGP
Regarding B1, the CCL21 self-association result is “weak and only detectable at mM concentrations”.
